Protein production data for 18 sequences are collected here from a protein production outcome set (Wang et al. 2014).

This data set is described as follows: label from the status in PepcDB records.

For the sequence “MFQDNPLLAQLKQQIQEKLPKKEGTIKATERGFGFLESDDKKKSIFIPPAQMKKVMHGDKVVALIRTENEKEQAEPDQLIEQSITRFIGRIQMFKKRLQVMPDHPSLKNAIKAKTRKGVNPETLKEGDWVVAELTQHPLKGDQGFQCDITHKITDSDDKIAPWWVTLAQNDLPNSEPEGIEHWEIKDDADLVRVDMTATPFVTIDGESTKDMDDALYIKKLENGSFELTIAIADPTAYITPDDSMDKVARERGYTIYLPGRNIPMLPRDLSDELCSLIEGQERPALCCTVLVDANGNIQEDSINFFAATIKSHARLAYDHVSDFLETGSCDKWQPNDTIAQVVTELYEFAQVRTTWRETHAVIFPDRPDYRFELSEDNDVIAIHADMRRTANKLVEEAMVTANICAGKTLRAAFNMGVFNSHAGIKSDKLKDVVEIVNQLEGVDFTEEQIATLEGFSELRRLLGKQPTSYLDARIRKFQTYSETGNEPLPHYAMGLDIYATWTSPIRKYSDMINHRMLKAHILGKEPVQRPDDIVGEELAISRRFHRMAERNVSDWLYCRTLASEVEKETKYTAEIFDINRAGMRVRLIENGAAAFIPGSLIVDNKERIECNADQGIISIDKHETFKLGDQLHVVLAEVKEDTRNMVAKPLQAFPAPEPEEAPVVENEDATTNATTSADA”, the protein production result is given as “failed”. With “MFQDVLVITVAVGRGGDGAVSFRREKFVPKGGPDGGDGGRGGSVYLRARGSVDSLSRLSKRTYKAEDGEHGRGSQQHGRGGEDLVIEVPRGTRVFDADTGELLADLTEEGQTVLVARGGAGGRGNMHFVSPTRQAPRFAEAGEEGEKRRLRLELMLIADVGLVGYPNAGKSSLLAAMTRAHPKIAPYPFTTLSPNLGVVEVSEEERFTLADIPGIIEGASEGKGLGLEFLRHIAGTRVLLYVLDAADDPFKTLKTLRKKVWAYDPGLLGRPSLVALNKVDLLEKEAVKALADALAREGLAVLPVSALTGAGLPALKEALHALVRSTPPPEMPKPVPRKEVQAGVEVVPVAEGVYEVRAPEVERYLARIKGDLMEAAGYLQEVFRRQGVEAALRAKGVRAGDLVRIGGLEFEYIPEV” the entry was “not failed”; with “MFQPVTQKRLTNVSVVRMRKGGKRFEIACYPNMVMAYREGHVRDLDEVIQVEDVFENVSKGKLAANADLERCFGTRDRHAVLLQILLHGDLQVSDRERQYQSTRKLHEIASVVAAKTISRETKKPLPVGLIEKALREIHFAVQPNRPAKAQALEVIPLLRAQSGLDLERARLRLRIHVPSQRDAKAVKARLEPLQQGETDGTHSSSRSDSVRMKDGSAAVESESEEWLPGGALLWTVQADPGAFREIEEIVQRETNQQGIVEVASLRVLDDEDESILS”, “failed”; with “MFRFADPNFLYLLILLPFLVALYLYSNYHRRQNIRKYGDPALLKGLMPTISKYRPDIKFWLTFAALTLVILMLARPQFGSKMETVKRSGVEAVIALDISNSMLAEDVTPSRLDKSKKLISRLVDTFNNDKVGLIVFAGDAFTQLPITSDYVSAKMFLETINPSLITTQGTDIGAAIRLAMKSFTPQEGVGRAIIVITDGENHEGGAVEAAQEAAEKGMQVFVLGVGSPDGSPIPAEDGSNNFRRDKDGNVIVTRLNEQMCQEIAKAGNGMYIRVDNTNSAEKVLNNEIAKLSKADVESQVYTEFDEQFQALAWLVLILLVVEMLILERKNPLFKNVRLFK”, “failed”. In the case of “MFRQSKRRIASRKNFSSYDDIVKSELDVGNTNAANQIILSSSSSEEEKKLYARLYESKLSFYDLPPQGEITLEQFEIWAIDRLKILLEIESCLSRNKSIKEIETIIKPQFQKLLPFNTESLEDRKKDYYSHFILRLCFCRSKELREKFVRAETFLFKIRFNMLTSTDQTKFVQSLDLPLLQFISNEEKAELSHQLYQTVSASLQFQLNLNEEHQRKQYFQQEKFIKLPFENVIELVGNRLVFLKDGYAYLPQFQQLNLLSNEFASKLNQELIKTYQYLPRLNEDDRLLPILNHLSSGYTIADFNQQKANQFSENVDDEINAQSVWSEEISSNYPLCIKNLMEGLKKNHHLRYYGRQQLSLFLKGIGLSADEALKFWSEAFTRNGNMTMEKFNKEYRYSFRHNYGLEGNRINYKPWDCHTILSKPRPGRGDYHGCPFRDWSHERLSAELRSMKLTQAQIISVLDSCQKGEYTIACTKVFEMTHNSASADLEIGEQTHIAHPNLYFERSRQLQKKQQKLEKEKLFNNGNH”, the protein production result is listed as “failed”. For “MFRTALRNVFAHKARLLMTVLAVMLGVAFVSGTLVFADTLSNAFRNQSAKSYQDVAVAVTSYADSDNPKDEYALSDEVLDRISAVDGVAGVYGRVEGFAGVADPDGKLIGVGWSNKGSNFAPGKDGKDAAYTFTDGSGPVKDDQIALDEDSAGKGEYQVGDRVRVATNGPVKEYTLSGVFTTEDGAVNAGGSLVLFDTAVAQKQYLRPGYFESATVAAAPGADDARILKAVEPLLPDTAEAQTGRALADEQADQIEQGMGNLKQVLLGFAGIALFVGIFLISNTFTMLVAQRTKEIALMRAVGASRRQITRSVLAEAALVGLVASAVGFALGVGLAVGLRSGMAAFDMKMPAGPLVLSATPVVAAFAVGVLITVFAAWLPGRRAAKIPPVAAMNS”, the protein production result is recorded as “failed”. Under “MFRVLHLADLHLGYRPDLPAPVREEVYRARNRVLQAAVDLALDPRQGISLVLIAGDLFDNHRPEASLVEETIRQLTRLEAAGIQVITVPGNHDEITYNDAVYRREAGRWPGLLVTDPMPAKVATLKVKGDTCHLMAMAYTGGVTRVDGPLKAFPPAEGEGVNLAVFHGSLDWDGGERSLPLDGEALAAAGYDYIALGHIHRGGQRRLGRGLAVYAGMVAGKGFADPGTGSWTIVTLGDGPARVEQVPARVTPWRLVDLDVTAFQEPEELETAVRDALDPGALMQVRLTGSLAFDLDLEGLQARLGHPCPYLELVNETAGWTPEILESIAAEPTIRGLFVRRLQEKLAGSAGPGEAEVIRRAIFRGLLALKGGSR” stands “failed”; under “MFSAKKLSPADKLKNISSMLEEIVEDTTVPRNIRAAADNAKNALHNEEQELIVRSATAIQYLDDISEDPNMPIHTRTQIWGIVSELETIK”, “not failed”.

On to “MFSFPAVLEAGIVFLYIAVALFLATLGIWIARTFLMPNVIKEDWNSLNRISFTTVIPLSASVMNAAIIAYYGFNVHYEYLYLVNYFIDFTSILFLSFFLGYKLYTKSPVHTNEISYGLLIPPVAISSNVLLGSSLMRTQYFNSIIFLTVIGVGIALFLFLFIGIMTFASYIRDQKANAPSPMLVLPVGVSSIIVINILAIATAKSVFQIPMADALTVSFMLWAFELWNFVVAMMISLKRVFREPATISIWAYTFPMAIFSVSSLDLRSIIGRYGYITASNIVYYIGIGAWVILIVAWVYAVMSTAIFLSHIKMIAYPG”, for which the protein production entry is on record as “failed”.

In the case of “MFSGKRLKKRRITLGYSQSELADKLHINRSSYFNWENEKTKPNQSNLKQLAILLDVPETYFESEYKIVNTYLQLSLQNQEKVEKYAEELLQTQKVHEKIVPLFAVEVLSEIQLSAGPGEGLYDEFETETVYSEDEYTGFDIATWISGNSMEPVYKDGEVALIRSTGFDHDGAVYALNWNGSLYIKKLYREEDGFRMVSINPDVAERFIPFEDEIRIVGKIVGHFMPVIGGLEHHHHHH”, the protein production result is given as “not failed”. Under “MFSLSFPSSSSALLPSLVAFDSSRRLSLQPKKLNRLQSHLFSPQHLSFSQSNVSRYRAFCVSSSSPPEGTVSVVDFHEKDWSFLESMEIDSTEHTQKIERIIKAGELSESSRVLVSISSETFVDRLVESSPSQLLLIVHDSLFTLACIKEKYDKVKCWQGEMIYVPEKWSPLDAVFLYFLPALPFDLDELFKTLSQRCSSGARVVISHPQGRLGLEQQRKEFSDVVVSDLPDESTLSNVAEKHSFELTQFVDEQGLYLAVLKSSKQ” stands “failed”; under “MFSNVNKTTSAEAGKSAFWAMSIFLLLLSIMLLVLGLYYQIVLHHTPAPLLLGIAAGFGLGTPLEIWNFSDPDTLMRVMAFQDRFLIVCFGFSIGLGAILLYLFAAIPGVSPHYGIKDFFVFGVVVGGLLFGVGVGLAGYFPGTIWIALGQGRRDAIYAVFGGLLGALTWSLIFGAARGFFWNTFNYGPITWYSIFGIKSHLEIFGTSLIFGAILLGMFLFLPRYPKQPVKESCGFHLAGKNNKVLTFDDMIDDENKKYPDQNQYLIRLTNESSIRNARSIIVLGIAFTVIAVAVILLRQIFGESTTYSWIGAQLFYAVNPQYAASNPYWNLFGGMHIVNGKPIDLPFSEIGWEPFSDLGTFLGGLISSIFISKRFMKFKKRVPLVWEHRFGPSDKKRFVGSFFGAFLVLFGARMANGCASGHVLSGNIQMAISSFVFLMAVLIGSWLTLYFVMGLKLNSRGYRN”, “failed”; under “MFSPEGPTRRELAVQALSSVERGYDLLAPKFDHTPYRTPDRVLDAVARGLEPLGPFAAGLDLCCGTGAGVEVLARVCQRDVTGVDFSAGMLEVARRRTLPPGPEVSWVRADARALPFGPAFDLVVSFGAFGHFLPRELPGLFGQVRSVLRPDGCFAFPVAAPPRPGSPGYWTLLGFDAAMRVRNALWRPPFVMYYRTFRLGAVGRELSRAGFRTDLHALPEFGRRPDGSPRARLVVARRLP”, “failed”. With “MFSQTIFFGMKQSARGVSVAFSTLQEASMHKRVLIQAASALLALQFMAVPVFAAGSSGGGSDQTVTQCKKGEVWDKKKKKCVAPQEGMLDDDSIYDAGHALAMAGRYDEAISVLTLAANKQDPRILNYLGYSHRHSGRVTVGLGYYEEALRIDPNYTLVREYLGEAHLQIGDLAGAQQQLMEIEKRTGKGSREYGMLSEQIDHFMRS” the entry was “failed”. Under “MFSSFSSRRRFRDLSDAEILALAISSEEDDARIYRSYADRLRAPYPGTAALFEAMAEEEDSHRRRLIGTFRDRFGETIPLIRREHVEGYPSRKPVWLLETLPLERVRREAWEMENAARSFYETAARHVTDASTRKLLGDLAAAEAAHEHRAERLAEEHLTDEATAAEDETARRQFILTWVQPGLAGLMDGSVSTLAPIFATAFATQDPATTFQVALAASVGAGISMGFTEAAHDDGVLSGRGAPWKRGLASGVMTTAGGLGHALPYLIPDFAWATGIAIAVVFFELWAIAWIQNRYMETPFLRAALQVVLGGGLVLAAGILIGFG” stands “failed”; under “MFTGMIRLVTLGTFAAALLSSPALAAGGGGGGGGGGSISSTDPYAGAYSDQKPQPTYPKRPGTKATQKGKKQGNQSSIGDPAFAAGYRVAYDTIYERNDYATAIAQLKSLGHDDHPNVANLIGYSYRKLGDYEQSQVWYERALRADPNHVQTWQYYGLWQLERGNREQALYHLGRIASICGTDCDEYRSLAAALDKPSGTALVY”, “failed”. In the case of “MFTLALPTPPPLAQARGSGLSAAFAAGAVIPVGDTPGGIALTPTGTRAYVANHGSNTVSVLDTVTDTVIDTIATGGGPNAVAFSPDGTRAYVTVADDGLVSVIDTATNTIVTDIAVGAGATGVAVTPDGSRVYVTLQSSDTVGVIDTATNTVTASIPAAGTPLGLVITPDGTRAYVACLFANAVRVIDTATNTVIATIPVGPVPILLAVSPGGTHVYVTNVGNSTVSVIDTATSAVIATVGVSAQPRFAAVSPDGFHVYVANSGPDTVSVIDTATQTVVENIGVGDGPTGIALLPDGTRAYVTNAVAGTVGVMATTVIPDQGSTAGGTTVTLTGHHLANATAVHFGTAQAVITANTATSMTVTAPAGSGAVPVTVTTAGGTGTLGHFYYVPVPALSGINPAAGPVAGSDDEIVLTGRHLAGAIDVYFGTTRAVIQTVSDNQVTVRAAGAPAPGGTAVTVITAGGSAGGLSYTYLDPSTVTGVSPDSGPTTGGTEVTITGTGLAGTEQVTFNGIPAAFTVVSDSTLTATTPPSGAAGPVGVTVTGPGGAPAGTFTYVSEPDI”, the protein production entry is on record as “failed”. In the case of “MFTLRELPFAKDSMGDFLSPVAFDFHHGKHHQTYVNNLNNLIKGTDFEKSSLFDILTKSSGGVFNNAAQIYNHDFYWDCLSPKATALSDELKGALEKDFGSLEQFKEDFIKSATTLFGSGWNWVAYNLDTQKIEIIQTSNAQTPVTDKKVPLLVVDVWEHAYYIDHKNARPVYLEKFYEHINWHFVSQCYEWAKKEGLGSVDYYINELVHKKA”, the protein production result was “failed”.
